From US20220380484A1 (MONASH UNIVERSITY, published 2022)

B1: G11 antibody (scFv, part only; not given: linker between domains, part only)
scFv, part: QAALTQPSSVSANPGEIVEITCSGGGTYYGWYQQKSPGSAPVTMIYQNNQRPSNIPSRFSGSGSGPANTLTITGVRAEDEAVYYCGGYDSSAGYATFGAGTTLTVLAVTLDESGGGLQTPGGGLSLVCKASGFSISSYSMYWVRQAPGKGLEFVASISSDGSDTSYGSAVKGRATISRDNGQSTVRLQLNYLRAEDTGTYFCAKPTGGYYTWYETGSIDTWGHGTEVIVSS
B2: G05 antibody (scFv, V domains shown)
VH: AVTLDESGGGLQTPGRALSLVCKASGFTFSSYAMHWVRQAPGKGLEFVAGIDNIGSYTRYGAAVKGRVTISRDNGQSIVRLQLDNLRAEDTGTYYCAKSAYGGSCCGPAYIDAWGHGTEVIVSS
VL: QAALTQPSSVSANPGETVEITCSGGGRSSYYGWYQQKSPGSAPVTLIYDNTNRPSNIPSRFSGSKSGSTATLTITGVQGEDEAVYFCGSADSSTTGIFGAGTTLTVL
notes: Chicken antibody from an scFv library (VH and VL joined by a flexible linker); also called scFv fragment of G05

Key:
[1] = biological target: plasminogen (human) (UniProt P00747); test: cell-based or functional assay
[2] = biological target: plasminogen (human) (UniProt P00747); test: SPR, multi-cycle; G11 immobilised on the chip, plasminogen injected as analyte; 1:1 Langmuir fit
[3] = biological target: plasminogen (human) (UniProt P00747); test: SPR (Biacore T200), antibody immobilised; FIG. 2
[4] = biological target: unactivatable mutant of plasminogen (recombinant plasminogen labelled with Alexa-Fluor 647) (human) (UniProt P00747); test: SDS-PAGE fluorescence scan of the bound fraction: 0.2 µM labelled plasminogen on Group A Streptococcus cells with 7.5 µM G05
[5] = biological target: plasminogen (human) (UniProt P00747); test: SPR (Biacore T200), antibody immobilised; FIG. 1
[6] = biological target: T1, plasmin (human, UniProt P00747 20-580; P00747 581-810); test: SPR, multi-cycle; G05 immobilised on the chip, plasmin injected as analyte; 1:1 Langmuir fit
T1 construct: Bought plasmin (Haematologic Technologies) is named in the activity assay; also called Plm; PLM
Text: Dotted lines represent 1:1 Langmuir model fit to experimental data.

[7] = biological target: unactivatable mutant of plasminogen (recombinant plasminogen labelled with Alexa-Fluor 647) (human) (UniProt P00747); test: flow cytometry: 22.2 nM Alexa-Fluor 647 plasminogen on Group A Streptococcus cells with 2.22 µM G05
[8] = biological target: plasminogen (human) (UniProt P00747); test: SPR, multi-cycle; G05 immobilised on the chip, plasminogen injected as analyte; 1:1 Langmuir fit

T1 sequence (P00747 20-580, chain 1 of 2): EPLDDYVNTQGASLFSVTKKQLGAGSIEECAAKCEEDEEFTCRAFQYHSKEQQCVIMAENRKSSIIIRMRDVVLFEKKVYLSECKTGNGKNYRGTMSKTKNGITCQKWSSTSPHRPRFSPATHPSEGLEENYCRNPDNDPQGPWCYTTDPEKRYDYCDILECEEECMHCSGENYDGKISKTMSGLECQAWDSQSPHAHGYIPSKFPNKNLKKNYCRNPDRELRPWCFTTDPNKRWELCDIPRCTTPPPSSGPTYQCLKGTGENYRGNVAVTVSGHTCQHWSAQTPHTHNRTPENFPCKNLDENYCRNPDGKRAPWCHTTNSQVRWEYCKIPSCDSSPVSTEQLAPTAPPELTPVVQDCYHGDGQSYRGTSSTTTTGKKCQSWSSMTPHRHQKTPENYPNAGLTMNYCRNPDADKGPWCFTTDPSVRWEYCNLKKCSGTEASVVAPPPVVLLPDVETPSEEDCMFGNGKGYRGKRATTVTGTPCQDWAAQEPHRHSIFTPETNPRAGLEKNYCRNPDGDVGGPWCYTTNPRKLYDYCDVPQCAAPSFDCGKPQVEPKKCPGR
T1 sequence (P00747 581-810, chain 2 of 2): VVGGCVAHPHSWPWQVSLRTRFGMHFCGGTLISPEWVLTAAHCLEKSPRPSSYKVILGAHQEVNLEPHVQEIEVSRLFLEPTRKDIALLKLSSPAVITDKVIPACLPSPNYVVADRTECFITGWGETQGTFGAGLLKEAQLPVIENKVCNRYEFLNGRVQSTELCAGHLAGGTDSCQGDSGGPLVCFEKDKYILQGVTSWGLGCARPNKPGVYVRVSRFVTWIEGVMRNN

Row | Binder | IC50 of tPA-mediated plasminogen activation in solution (20 nM plasminogen, 20 mM EACA, 4 nM tPA, fluorogenic plasmin substrate) [1] [nM] | IC50 of tPA-mediated plasminogen activation on a preformed fibrin clot (100 nM plasminogen) [1] [nM] | Kd [2] [nM] | koff [2] [s⁻¹] | kon [2] [M⁻¹ s⁻¹] | fold greater affinity for plasminogen compared to plasmin [3] [fold] | percent reduction in plasminogen binding to GAS cells [4] [%] | fold greater affinity for plasminogen compared to plasmin [5] [fold] | Kd [6] [nM] | koff [6] [s⁻¹] | kon [6] [M⁻¹ s⁻¹] | percent inhibition of plasminogen binding to GAS cells [7] [%] | Kd [8] [nM] | koff [8] [s⁻¹] | kon [8] [M⁻¹ s⁻¹]
1 | B1 | 20 | 47 | 14 | 0.0018 | 420000 | 10 |  |  |  |  |  |  |  |  | 
2 | B2 | 17.3 | 292 |  |  |  |  | 70 | 10 | 0.76 | 0.00046 | 640000 | 40 | 7.9 | 0.00071 | 409000
